These are literature values, as cited in patent publication US9034821B2, “Pharmaceutical composition” (priority 2011, dated 2015).

Read-outs that look alike come from different tables or passages of the source.

With “Cys-Tyr-Ile-Gln-Asn-Cys-Pro-Leu-Gly-NH2 [oxytocin]”, for the setting “aqueous solutions of different pH”, the “pH of best stability” value is given as 4.5. Moreover, the degradation of oxytocin result was “about 15 % (area %)” (buffered aqueous solution of pH 3, stored at 70° C. for 7 days) and “approximately 35 % (area %)” (buffered aqueous solution, pH 4, stored at 70° C. for 7 days).
